Sequences and labels used below:
B1: Ab9 (antibody, human IgG1, kappa, N297A, V domains shown)
VH: QSVEESGGRLVTPGTPLTLTCTVSGIDLSSYAMGWVRQAPGKGLEYIGIIVSYGPTYYASWAKGRFTISKTSTTVDLKITSPTAEDTATYFCARDLDANSSGYYGCFNIWGQGTLVTVSS
VL: AVVLTQTPASVSAAVGGTVTIKCQASQSISTALAWYQQKPGQPPKLLIYAASPLASGVSSRFKSSGSGTEFTLTISDLECADAATYYCQSYYGSSNIAFGGGTELEILR
notes: also called antibody Ab9
B2: Ab15 (antibody, human IgG1, kappa, N297A, V domains shown)
VH: QEQLEESGGDLVKPEGSLTLTCTASGFSFSSSYWICWVRQAPGKGLEWIACIDAGNSGSTYYASWAKGRFTISKASSTTVTLQMTSLTAADTATYFCASDLNDGWLGQFNLWGPGTLVTVSS
VL: NIVMTQTPSPVSGAVGGTVTIKCQASQSISDYLAWYQQKPGQPPKLLIYRASTLASGVPSRFRGSGSGTEYTLTITDLECADAATYYCQSYYSVTTNTYGNTFGGGTEVVVKR
notes: also called antibody Ab15
B3: Ab13 (antibody, human IgG1, kappa, N297A, V domains shown)
VH: QSVEESGGRLVTPGTPLTLTCTVSGIDLSTYGVGWVRQAPGKGLEYIGIISSSGSTYYASWAKGRFTISKTSSTTVDLKMTSLTTEDTATYFCARDWSSTTGYYGYFNMWGPGTLVTVSS
VL: AFELTQTPSPVSAAVGGTVTIKCQASQSISTALAWYQQKPGQPPKLLIYGASNLESGVPSRFSGSGSGTQFTLTISDLECADAAIYYCQSSYGSSTLAFGGGTEVVVKR
notes: also called antibody Ab13
B4: Ab7 (antibody, human IgG1, kappa, N297A)
heavy: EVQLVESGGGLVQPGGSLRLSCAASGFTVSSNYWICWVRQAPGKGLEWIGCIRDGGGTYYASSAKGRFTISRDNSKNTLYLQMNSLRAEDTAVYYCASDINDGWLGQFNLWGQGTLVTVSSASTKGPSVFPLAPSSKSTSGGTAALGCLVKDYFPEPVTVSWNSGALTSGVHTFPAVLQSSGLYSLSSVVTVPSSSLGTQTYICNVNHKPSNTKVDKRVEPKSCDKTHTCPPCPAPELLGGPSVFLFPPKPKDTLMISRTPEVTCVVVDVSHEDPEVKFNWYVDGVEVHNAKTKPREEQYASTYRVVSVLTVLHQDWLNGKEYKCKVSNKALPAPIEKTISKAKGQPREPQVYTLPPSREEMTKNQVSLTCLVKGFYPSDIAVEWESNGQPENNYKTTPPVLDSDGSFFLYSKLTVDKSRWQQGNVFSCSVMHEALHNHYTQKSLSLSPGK
light: ADIVMTQSPSSLSASVGDRVTIKCQASQSISAYLAWYQQKPGKVPKLLIYRAYTLASGVPSRFSGSGSGTDFTLTISSLQPEDVATYYCQSYYSVTTNTYGNTFGGGTKVEIKRTVAAPSVFIFPPSDEQLKSGTASVVCLLNNFYPREAKVQWKVDNALQSGNSQESVTEQDSKDSTYSLSSTLTLSKADYEKHKVYACEVTHQGLSSPVTKSFNRGEC
notes: also called antibody Ab7
B5: Ab12 (antibody, human IgG1, kappa, N297A)
heavy: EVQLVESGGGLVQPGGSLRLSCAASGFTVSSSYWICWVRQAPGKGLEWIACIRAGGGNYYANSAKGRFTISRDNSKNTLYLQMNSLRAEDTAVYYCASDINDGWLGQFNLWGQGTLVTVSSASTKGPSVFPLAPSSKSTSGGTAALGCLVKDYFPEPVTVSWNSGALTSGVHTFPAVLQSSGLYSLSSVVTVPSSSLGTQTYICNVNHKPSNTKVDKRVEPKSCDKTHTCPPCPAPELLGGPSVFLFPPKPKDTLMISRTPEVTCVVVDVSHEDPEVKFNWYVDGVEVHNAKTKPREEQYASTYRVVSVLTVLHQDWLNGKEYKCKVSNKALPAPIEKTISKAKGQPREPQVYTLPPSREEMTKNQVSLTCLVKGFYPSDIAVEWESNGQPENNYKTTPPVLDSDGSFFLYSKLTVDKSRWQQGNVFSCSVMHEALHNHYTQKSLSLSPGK
light: B4 light with D2N, A32N, A52T, Y53S, N98V, T99A
notes: also called antibody Ab12
B6: Ab18 (antibody, human IgG1, kappa, N297A)
heavy: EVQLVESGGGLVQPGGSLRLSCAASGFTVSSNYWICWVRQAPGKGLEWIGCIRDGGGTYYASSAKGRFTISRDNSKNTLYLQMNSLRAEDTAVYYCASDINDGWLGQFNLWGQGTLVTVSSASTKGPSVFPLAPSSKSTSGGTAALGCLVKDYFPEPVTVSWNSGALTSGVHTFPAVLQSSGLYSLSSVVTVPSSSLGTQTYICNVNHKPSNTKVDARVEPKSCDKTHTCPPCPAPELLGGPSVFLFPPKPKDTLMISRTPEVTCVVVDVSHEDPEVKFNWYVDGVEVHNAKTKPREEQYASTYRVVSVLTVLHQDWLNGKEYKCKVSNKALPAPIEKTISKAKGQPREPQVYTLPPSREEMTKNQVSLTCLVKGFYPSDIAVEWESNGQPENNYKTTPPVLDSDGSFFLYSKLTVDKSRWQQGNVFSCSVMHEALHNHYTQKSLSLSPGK
light: B4 light
notes: also called antibody Ab18
B7: Ab11 (antibody, human IgG1, kappa, N297A)
heavy: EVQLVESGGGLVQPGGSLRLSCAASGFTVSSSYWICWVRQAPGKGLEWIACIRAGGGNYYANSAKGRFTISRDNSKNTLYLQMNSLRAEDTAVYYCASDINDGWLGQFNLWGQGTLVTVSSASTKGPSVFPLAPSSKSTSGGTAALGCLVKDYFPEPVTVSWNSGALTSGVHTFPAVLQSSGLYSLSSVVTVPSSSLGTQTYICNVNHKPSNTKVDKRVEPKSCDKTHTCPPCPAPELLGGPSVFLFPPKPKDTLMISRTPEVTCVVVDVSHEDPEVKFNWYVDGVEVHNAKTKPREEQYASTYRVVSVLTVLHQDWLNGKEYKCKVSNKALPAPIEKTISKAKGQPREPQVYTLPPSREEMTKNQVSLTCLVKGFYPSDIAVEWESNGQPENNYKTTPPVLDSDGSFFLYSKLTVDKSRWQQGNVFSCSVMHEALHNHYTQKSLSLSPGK
light: B4 light with D2N, K23T, A32N, A52T, Y53S, N98V, T99A
notes: also called antibody Ab11
B8: Ab19 (antibody, human IgG1, kappa, N297A, V domains shown)
VH: EVQLVESGGGLVQPGGSLRLSCAASGIDLSSYAMGWVRQAPGKGLEYIGIIVSYGPTYYASWAKGRFTISRDNSKNTVYLQMNSLRAEDTATYFCARDLDAQSSGYYGAFNIWGQGTLVTVSS
VL: DIQMTQSPSTLSASVGDRVTITCQASQSISTALAWYQQKPGKAPKLLIYAASPLASGVPSRFSGSGSGTEFTLTISSLQPDDFATYYCQSYYGSSNIAFGGGTKVEIKR
notes: also called antibody Ab19
B9: Ab20 (antibody, human IgG1, kappa, N297A, V domains shown)
VH: B8 VH with N76S
VL: B8 VL
notes: also called antibody Ab20
B10: Ab5 (antibody, human IgG1, kappa, N297A, V domains shown)
VH: QSVEESGGRLVTPGTPLTLTCTVSGFSLSSYAMSWVRQAPGKGLEWIGIISNSGTTYYASWAKGRFTISKTSTTVDLKITSPTTEDTATYFCARGIYWYWRVFNLWGPGTLVTVSS
VL: AVLTQTPSPVSAAVGGTVTINCQASQSVYNNLLSWYQQKPGQPPKLLIYDASNLASGVPDRFSGSGSGTQFTLTISGVQCDDAATYYCLGGYDDDADNAFGGGTEVVVKR
notes: also called antibody Ab5
B11: Ab1 (antibody, human IgG1, kappa, N297A, V domains shown)
VH: QSVEESGGRLVTPGTPLTLTCTVSGFSLSSYWMTWVRQAPGKGLEYIGIISSSGSTYYATWAKGRFTISKTSSTTVDLEITSPTTEDTATYFCARDSAFSSGLEFNIWGPGTLVTVSS
VL: AYDLTQTPASVEVAVGGTVTIKCQASQSVYSNWLSWYQQKPGQPPKLLIYDASDLASGVPSRFKGSGSGTQFTLTISGVQCDDAATYYCQQGQSSSDIDNTFGGGTEVVVKR
notes: also called antibody Ab1
B12: Ab2 (antibody, human IgG1, kappa, N297A, V domains shown)
VH: QSVEESGGRLVTPGTPLTLTCTVSGFSLSSYAMSWVRQAPGKGLEWIGIIDAIDNTYYASWAKGRFTISKTSTTVDLKMTSLTTGDTATYFCARASILGYSIATGFNIWGPGTLVTVSS
VL: AYDMTQTPASVEVAVGGTVTIKCQASQSISSHLAWYQQKSGQPPKLLIYRASTLESGVSSRFKGSGSGTEFTLTISDLECADAATYYCQQGYGVSDVDNGFGGGTEVVVKR
notes: also called antibody Ab2
B13: Ab8 (antibody, human IgG1, kappa, N297A, V domains shown)
VH: QEQLVESGGGLVQPEGSLTLTCTASGFSFTSDYYMCWVRQAPGKGLEWIGCISTGDGSTYYASWAKGRFTISKPSSTTVTLQMTRLTAADTATYFCARDRYYSYAYGAYVYASDLWGPGTLVTVSS
VL: DIVMTQTPASVSEPVGGTVTINCQASESIRNYLSWYQQKPGQRPKLLIYGASTLASGVPSRFKGSGSGTDFTLTISDLECADAATYYCQSNYGISSRSYVNGFGGGTEVVVKR
notes: also called antibody Ab8
B14: Ab6 (antibody, human IgG1, kappa, N297A, V domains shown)
VH: QEQLEESGGDLVKPEGSLTLTCTASGFSFSSNYWICWVRQAPGKGLEWIGCIRDGGGTYYASWAKGRLTISMTSSTTVTLQLNSLTAADTATYFCASDINDGWLGQFNLWGPGTLVTVSS
VL: DIVMTQTPASVEVAVGGTVTIKCQASQSISAYLAWYQQKPGQPPKLLIYRAYTLASGVPSRFKGSGSGTQFTLTISDLECADAATYYCQSYYSVTTNTYGNTFGGGTEVVVKR
notes: also called antibody Ab6
B15: Ab14 (antibody, human IgG1, kappa, N297A, V domains shown)
VH: QEQLEESGGDLVKPEGSLTLTCTGSGFSFSSIAYMCWIRQAPGKGLEWIGCIGSGSGNTYYANWAKGRFTISKSSSTTVTLQMTSLTAADTATYFCASDTNNGWLGQFNLWGQGTLVTVSS
VL: B14 VL with E12S, V13A, K22N, A31S, Y52S, S90G
notes: also called antibody Ab14
B16: Ab16 (antibody, human IgG1, kappa, N297A, V domains shown)
VH: B14 VH with E5V, D10G, K13Q, N32D, T58S, S62N, T79G, Q81K, L82M, N83T
VL: B14 VL with V13A, A31S, Y52S, K63S, Q70E, N97V
notes: also called antibody Ab16
B17: Ab17 (antibody, human IgG1, kappa, N297A, V domains shown)
VH: QEQLEESGGDLVKPEGSLTLTCTASGFSFSSSYWICWVRQAPGKGLEWIGCIRPGSADYYASWAKGRFTISRASSSTVTLQMTSLTAADTATYFCASDINDGWLGQFNLWGPGTLVTVSS
VL: B14 VL with I2V, V13A, Q27L, S30A, A31D, Q37L, Y52S, Q70E, F71Y
notes: also called antibody Ab17
B18: Ab10 (antibody, human IgG1, kappa, N297A, V domains shown)
VH: B17 VH with G50A, P54A, S56G, A57G, D58N, S62N, A73T, S76T
VL: B14 VL with D1N, V13A, A31N, A51T, Y52S, N97V, T98A
notes: also called antibody Ab10
B19: Ab4 (antibody, human IgG1, kappa, N297A, V domains shown)
VH: QSVEESGGRLVTPGTPLTLTCTVSGIDLSSYAMIWVRQAPEKGLEYIGYIGGIDSTYYASWAKGRFTISKTSTTVDLKMTSPTTEDTATYFCGRWSGTSGYNTIWGPGTLVTVSS
VL: DVVMTQTPASVEAAVGGTVTIKCQASQSIYSNLAWYQQKPGQPPKLLIYGASNLASGVSSRFKGSRSGTEYTLTISDLECADAATYYCQCTGGGDSGNTFGGGTEVVVKR
notes: also called antibody Ab4
B20: Ab3 (antibody, human IgG1, kappa, N297A, V domains shown)
VH: QSVEESGGRLVTPGGSLTLTCTASGFSLSSYYMSWVRQAPGKGLEWIGIIYPSGSTYYASWAKGRFTISKTSTTVDLKITSPTVEDTATYFCARGGAYATLNLWGPGTLVTVSS
VL: AVLTQTPSPVSAAVGGTVTISCQSSQSVYHNNLLSWYQQKPGQPPKLLIYDASKLTSGVSSRFSGSGSGTQFTLTISGVQCDDAATYYCLGGYDDDADNGFGGGTEVVVKR
notes: also called antibody Ab3

Changes are numbered by the printed parent chain.

One may read the Kd as the free concentration of one partner at which half of the binding sites on the other are occupied at equilibrium, for simple one-to-one binding. Higher therefore signals a looser complex. One may read the koff as the first-order rate constant of dissociation. Read a high koff as a short-lived complex. As a reminder, the kon is the second-order rate constant of association. Read a low kon as slow association.

The target of the assay is T1, human Proprotein Convertase Subtilisin-like/Kexin type 9 (human, UniProt Q8NBP7 31-692, limits assumed).
T1 construct: Biotinylated in the ELISAs; unlabelled analyte in BLI and SPR; also called human PCSK9; PCSK9
T1 sequence (Q8NBP7 31-692 limits assumed): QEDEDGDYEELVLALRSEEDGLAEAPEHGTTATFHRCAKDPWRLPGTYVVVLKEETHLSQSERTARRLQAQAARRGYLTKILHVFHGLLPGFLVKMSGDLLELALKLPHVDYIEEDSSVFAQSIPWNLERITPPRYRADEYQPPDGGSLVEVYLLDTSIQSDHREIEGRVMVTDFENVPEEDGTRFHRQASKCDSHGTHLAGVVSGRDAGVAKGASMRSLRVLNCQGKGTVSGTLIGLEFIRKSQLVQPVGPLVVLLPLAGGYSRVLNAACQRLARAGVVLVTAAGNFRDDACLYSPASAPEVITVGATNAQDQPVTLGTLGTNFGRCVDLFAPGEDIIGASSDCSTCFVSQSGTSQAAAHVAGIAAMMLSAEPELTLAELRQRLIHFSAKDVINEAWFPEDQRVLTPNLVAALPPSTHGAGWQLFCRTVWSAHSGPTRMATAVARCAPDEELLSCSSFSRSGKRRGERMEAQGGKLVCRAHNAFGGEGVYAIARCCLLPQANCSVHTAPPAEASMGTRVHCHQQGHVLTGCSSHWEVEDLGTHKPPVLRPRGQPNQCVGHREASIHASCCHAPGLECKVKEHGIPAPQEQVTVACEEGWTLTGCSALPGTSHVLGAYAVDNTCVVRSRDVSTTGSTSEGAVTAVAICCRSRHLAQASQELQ
The assay is described as follows: BLI (Octet QK), biotinylated antibody on streptavidin sensors, human PCSK9 in solution, 1:1 fit. Here is the method:
Binding affinities of monoclonal antibodies for PCSK9 were estimated using Bio-Layer Interferometry (BLI) on the Octet QK (ForteBio). Biotinylated antibody was immobilized at different densities to the surface of Streptavidin (SA) Biosensors. A dilution series of human PCSK9 prepared in 1× Kinetics Buffer (NaCl 0.0138 M; KCl 0.00027 M; 0.1 mg/mL BSA, 0.002% Tween and 0.005% Sodium Azide; pH 7.4, at 25° C.) purchased from the manufacturer (ForteBio) was used to query the antibodies. At our chosen concentrations of antigen (˜0.25 μg/mL-2 μg/mL) association times of 15 minutes and dissociation times of 25 minutes were used with the Octet Analysis Software (v6.4, ForteBio), to globally fit data using a 1:1 Langmuir binding model.
Background: BLI is a label-free optical method that tracks binding on a fibre tip over time.
The molecule B1 displayed a Kd of 0.637 nM, a koff of 4.91e-05 s⁻¹ and a kon of 77000 M⁻¹ s⁻¹.
B2 had a dissociation constant (Kd) of 0.839 nM, a koff of 5.8e-05 s⁻¹ and an association rate constant (kon) of 69200 M⁻¹ s⁻¹.
B3 came in with a Kd of 2.23 nM, an off-rate constant (koff) of 0.000353 s⁻¹ and a kon of 159000 M⁻¹ s⁻¹.
B4 had a dissociation constant Kd of 0.379 nM, an off-rate (koff) of 2.68e-05 s⁻¹ and an on-rate (kon) of 70700 M⁻¹ s⁻¹.
The like results for B5 were, in that order, 0.12 nM, 1.21e-05 s⁻¹ and 100000 M⁻¹ s⁻¹.
B6: the dissociation constant (Kd) is 0.215 nM, the koff amounted to 2.09e-05 s⁻¹ and the kon is 97000 M⁻¹ s⁻¹.
B7 showed a dissociation constant (Kd) of 0.332 nM, a koff of 2.22e-05 s⁻¹ and a kon of 66800 M⁻¹ s⁻¹.
Molecule B8 displayed a dissociation constant Kd of 1.3 nM, an off-rate (koff) of 0.000116 s⁻¹ and an on-rate (kon) of 88000 M⁻¹ s⁻¹.
In the case of B9, binding was characterised by a dissociation constant (Kd) of 0.6 nM, the koff was 6.63e-05 s⁻¹ and the on-rate (kon) worked out at 108000 M⁻¹ s⁻¹.
B10: the equilibrium dissociation constant (Kd) stood at 3.16 nM, the koff amounted to 0.000278 s⁻¹ and the on-rate constant (kon) was found to be 88100 M⁻¹ s⁻¹.
B11 displayed a Kd of 7.99 nM, a koff of 0.0013 s⁻¹ and a kon of 162000 M⁻¹ s⁻¹.
B12: the Kd amounted to 4.25 nM, the koff came out at 0.000453 s⁻¹ and the kon was found to be 107000 M⁻¹ s⁻¹.
B13 showed a Kd of 0.637 nM, a koff of 4.91e-05 s⁻¹ and an on-rate constant (kon) of 77000 M⁻¹ s⁻¹.
The like results for B14 were, in that order, 0.531 nM, 4e-05 s⁻¹ and 75300 M⁻¹ s⁻¹.
The like results for B15 were, in that order, 3.7 nM, 0.000362 s⁻¹ and 97900 M⁻¹ s⁻¹.
As for B16, the Kd is 1.28 nM, the koff is 9.92e-05 s⁻¹ and the kon amounted to 77500 M⁻¹ s⁻¹.
B17 yielded a Kd of 0.609 nM, a koff of 6.27e-05 s⁻¹ and an association rate constant (kon) of 103000 M⁻¹ s⁻¹.
B18: the Kd amounted to 0.676 nM, the koff came out at 5.09e-05 s⁻¹ and the on-rate constant (kon) was determined as 75300 M⁻¹ s⁻¹.
B19 yielded a Kd of 6 nM, a koff of 0.000422 s⁻¹ and a kon of 70300 M⁻¹ s⁻¹.
In the case of B20, the Kd was found to be 5.87 nM, the dissociation rate constant (koff) worked out at 0.000554 s⁻¹ and the association rate constant (kon) came to 94400 M⁻¹ s⁻¹.
